Experimental data from publication PMC5187433, “A bromodomain–DNA interaction facilitates acetylation-dependent bivalent nucleosome recognition by the BET protein BRDT” (Nature Communications, 2016).

Experiments:
Assay in all cases: ITC
[1] = molecular target: N-BRDT(1) 3KS K37S;K41S;K45S (Homo sapiens) (UniProt Q58F21); settings: histone H4K5acK8ac (H4 A15C ligation); EMSA: 20 mM Tris pH 7.5, 100 mM NaCl, 5 mM DTT, 0.5 mM EDTA, 4 C; ITC: 20 mM Tris pH 8.0, 150 mM NaCl, 1 mM EDTA, 1 mM TCEP, 20 C; NMR at 34 C
[2] = molecular target: N-BRDT(1) (Homo sapiens) (UniProt Q58F21); settings: EMSA: 20 mM Tris pH 7.5, 100 mM NaCl, 5 mM DTT, 0.5 mM EDTA, 4 C, ITC: 20 mM Tris pH 8.0, 150 mM NaCl, 1 mM EDTA, 1 mM TCEP, 20 C, NMR at 34 C
[3] = molecular target: N-BRDT(1) K41S K41S (Homo sapiens) (UniProt Q58F21); settings: histone H4K5acK8ac (H4 A15C ligation); EMSA: 20 mM Tris pH 7.5, 100 mM NaCl, 5 mM DTT, 0.5 mM EDTA, 4 C; ITC: 20 mM Tris pH 8.0, 150 mM NaCl, 1 mM EDTA, 1 mM TCEP, 20 C; NMR at 34 C
[4] = molecular target: N-BRDT(1) 3KE K37E;K41E;K45E (Homo sapiens) (UniProt Q58F21); settings: histone H4K5acK8ac (H4 A15C ligation); EMSA: 20 mM Tris pH 7.5, 100 mM NaCl, 5 mM DTT, 0.5 mM EDTA, 4 C; ITC: 20 mM Tris pH 8.0, 150 mM NaCl, 1 mM EDTA, 1 mM TCEP, 20 C; NMR at 34 C

Sequence | Kd [1] [µM] | Kd ([2]; histone H4K5acK8ac (H4 A15C ligation)) [µM] | Kd [3] [µM] | binding signal (fold reduced affinity vs WT) [4] | Kd ([2]; H4K5acK8ac tail ligated to H3 core, WT H2A, H2B, H4) [µM]
TCGGGGGCCGCCCTGGAGAATCCCGGTGCCGAGGCCGCTCAATTGGTCGTAGACAGCTCTAGCACCGCTTAAACGCACGTACGCGCTGTCCCCCGCGTTTTAACCGCCAAGGGGATTACTCCCTAGTCTCCAGGCACGTGTCAGATATATACATCCTGTGCATGTAC / CCGAGTACATGCACAGGATGTATATATCTGACACGTGCCTGGAGACTAGGGAGTAATCCCCTTGGCGGTTAAAACGCGGGGGACAGCGCGTACGTGCGTTTAAGCGGTGCTAGAGCTGTCTACGACCAATTGAGCGGCCTCGGCACCGGGATTCTCCAGGGCGGCCC [H4K5acK8ac nucleosome (167 bp Widom)] | 9 | 2 | 7 | 5 | 
TCGGGGGCCGCCCTGGAGAATCCCGGTGCCGAGGCCGCTCAATTGGTCGTAGACAGCTCTAGCACCGCTTAAACGCACGTACGCGCTGTCCCCCGCGTTTTAACCGCCAAGGGGATTACTCCCTAGTCTCCAGGCACGTGTCAGATATATACATCCTGTGCATGTAC / CCGAGTACATGCACAGGATGTATATATCTGACACGTGCCTGGAGACTAGGGAGTAATCCCCTTGGCGGTTAAAACGCGGGGGACAGCGCGTACGTGCGTTTAAGCGGTGCTAGAGCTGTCTACGACCAATTGAGCGGCCTCGGCACCGGGATTCTCCAGGGCGGCCC [chimeric H3-H4K5acK8ac nucleosome (167 bp Widom)] |  |  |  |  | 5
